Experimental findings from patent US11957737B2, “Methods of treating microbial infection and inflammation” (Colorado Seminary, Owner and Operator of University of …, priority 2017, dated 2024) are described below.

For one assay, the system named is E. coli (ATCC 25922). The experiment in a line: standard broth dilutions susceptibility test, read at 600 nm. The assay is classed as cell-based. The method, then: The following methods were used to conduct the experiments described in Examples 1-3, below: The experiments were conducted using the standard broth dilutions susceptibility test (Jorgensen, J. H.; Turnidge, J. D., Susceptibility test methods: dilution and disk diffusion methods. In Manual of Clinical Microbiology, Eleventh Edition, American Society of Microbiology: 2015; pp 1253-73). Briefly, 1 μl of glycerol stock aliquot of E. coli (ATCC 25922) was inculcated into Tryptic Soya agar (TSA) (Sigma Aldrich 22091) plates and incubated at 37° C. for 24 hrs. Subsequently, 3-5 separate colonies were selected and transferred into 4 ml Tryptic Soya broth (TSB) (Sigma Aldrich 22092) and incubated at 37° C. for 24 hrs. After incubation, samples were diluted 4 ml into 50 ml TSB to make E. coli stock. 200 μl samples were then placed into wells of a 96-microwell plate. All samples were prepared in TSB, (Blank) using TSB, ERGO (OXIS International), LF (Sigma Aldrich) and NLF were diluted to 1 mg/ml. The nitration reaction was prepared following the method reported by Selzle et al (Determination of nitration degrees for the birch pollen allergen Bet v 1. Analytical and Bioanalytical Chemistry 2013, 405(27):8945-49). According to this procedure, 400 μl aliquots of 5.0 mg/ml (±5%) LF in aqueous solution were pipetted into glass vials. […] Using the plate reader (Tecan Infinite, M1000 PRO). […]

A short description of assay [1]: ferrous iron (Fe++) binding capacity of LF. As to conditions: following sodium peroxinitrite-induced nitration of the iron-containing form of the protein. From the text: As noted above, LF binds ferrous iron (Fe++) and controls iron distribution throughout the body and its ability to bind to inflammatory and other cell membranes and impact the activities of these cells through its iron binding activities and other mechanisms. The inventors hypothesized that the antibacterial effect may be linked to the iron binding activity of LF and that this antibacterial effect may be disrupted by nitration.
However, sodium peroxinitrite caused changes that went far beyond the mere nitration of a few tyrosine residues to include destruction of tyrosine and tryptophan which at least in part were converted to unidentified reaction products. Nitration can occur as a consequence of the formation of reactive nitrogen species in the body and as a result of drug or chemical reactions, and/or environmental toxins in polluted air, water, or other routes of intake.

B1: LF: Lactoferrin (LF) is an 80 kDa glycoprotein that exists in mucosal secretions from exocrine glands and neutrophil granules (protein, UniProt P02788 20-710, looked up)
Lactotransferrin: GRRRSVQWCAVSQPEATKCFQWQRNMRKVRGPPVSCIKRDSPIQCIQAIAENRADAVTLDGGFIYEAGLAPYKLRPVAAEVYGTERQPRTHYYAVAVVKKGGSFQLNELQGLKSCHTGLRRTAGWNVPIGTLRPFLNWTGPPEPIEAAVARFFSASCVPGADKGQFPNLCRLCAGTGENKCAFSSQEPYFSYSGAFKCLRDGAGDVAFIRESTVFEDLSDEAERDEYELLCPDNTRKPVDKFKDCHLARVPSHAVVARSVNGKEDAIWNLLRQAQEKFGKDKSPKFQLFGSPSGQKDLLFKDSAIGFSRVPPRIDSGLYLGSGYFTAIQNLRKSEEEVAARRARVVWCAVGEQELRKCNQWSGLSEGSVTCSSASTTEDCIALVLKGEADAMSLDGGYVYTAGKCGLVPVLAENYKSQQSSDPDPNCVDRPVEGYLAVAVVRRSDTSLTWNSVKGKKSCHTAVDRTAGWNIPMGLLFNQTGSCKFDEYFSQSCAPGSDPRSNLCALCIGDEQGENKCVPNSNERYYGYTGAFRCLAENAGDVAFVKDVTVLQNTDGNNNEAWAKDLKLADFALLCLDGKRKPVTEARSCHLAMAPNHAVVSRMDKVERLKQVLLHQQAKFGRNGSDCPDKFCLFQSETKNLLFNDNTECLARLHGKTTYEKYLGPQYVAGITNLKKCSTSPLLEACEFLRK
B1: the “growth of E. coli” value with E. coli (ATCC 25922) (LF 1 mg/ml or 2 mg/ml, ERGO 5 mM or 50 mM, compared to growth of E. coli without additions, FIGS. 1A and 1B) was “reduced the growth of E. coli”. Moreover, the “iron-binding capacity of LF” value in assay [1] is given as “remained intact”.

B2: nitrated LF: LF nitrated with sodium peroxynitrite at ONOO-/Tyr molar ratios of 10/1 and 40/1 (protein, UniProt P02788 20-710, looked up)
Lactotransferrin: GRRRSVQWCAVSQPEATKCFQWQRNMRKVRGPPVSCIKRDSPIQCIQAIAENRADAVTLDGGFIYEAGLAPYKLRPVAAEVYGTERQPRTHYYAVAVVKKGGSFQLNELQGLKSCHTGLRRTAGWNVPIGTLRPFLNWTGPPEPIEAAVARFFSASCVPGADKGQFPNLCRLCAGTGENKCAFSSQEPYFSYSGAFKCLRDGAGDVAFIRESTVFEDLSDEAERDEYELLCPDNTRKPVDKFKDCHLARVPSHAVVARSVNGKEDAIWNLLRQAQEKFGKDKSPKFQLFGSPSGQKDLLFKDSAIGFSRVPPRIDSGLYLGSGYFTAIQNLRKSEEEVAARRARVVWCAVGEQELRKCNQWSGLSEGSVTCSSASTTEDCIALVLKGEADAMSLDGGYVYTAGKCGLVPVLAENYKSQQSSDPDPNCVDRPVEGYLAVAVVRRSDTSLTWNSVKGKKSCHTAVDRTAGWNIPMGLLFNQTGSCKFDEYFSQSCAPGSDPRSNLCALCIGDEQGENKCVPNSNERYYGYTGAFRCLAENAGDVAFVKDVTVLQNTDGNNNEAWAKDLKLADFALLCLDGKRKPVTEARSCHLAMAPNHAVVSRMDKVERLKQVLLHQQAKFGRNGSDCPDKFCLFQSETKNLLFNDNTECLARLHGKTTYEKYLGPQYVAGITNLKKCSTSPLLEACEFLRK
modifications: tyrosine nitration by peroxynitrite
Regarding B2, the “inhibition of growth of E. coli by previously nitrated LF” value with E. coli (ATCC 25922) (LF nitrated with sodium peroxynitrite, compared to native (non-nitrated) LF) was “did not inhibit the growth of E. coli as much as adding native (non-nitrated) LF”.
